In the RNAGym collection of RNA variant scans (doi:10.7554/elife.80360):

B1: Hammerhead Ribozyme (parent)
chain: ACCGGAUGUGCUUUCCGGUCUGAUGAGUCCGUGAGGACGAAACAG

Variants of: B1
Assay: self-cleavage, relative activity (ratio to wild type); higher = more cleavage; co-transcriptional

Compared with ACUGGAUGUGCUUUCCGGUCUGAUGAGACCGUGAGGACGAAACAG [C3U U28A], ACCGGAUGUGCUUUCCGAUCUGAUGAGUCCGUGAGGAAGAAACAG [G18A C38A] is higher in self-cleavage: 0.448 for the first, 0.596 for the second.

Compared with ACCGGAUGUGCUUUCCGGUCUGAUGCGUCCGUGAGGCCGAAACAG [A26C A37C], ACCGGAUGUGCUUCCCGGUCUGAUGAGUCCGUGAGGACGAAACAG [U14C] is higher in self-cleavage: 0.518 for the first, 0.932 for the second.

First: ACCGGAUGCGCUUUCCGGUCUGAUAAGUCCGUGAGGACGAAACAG [U9C G25A]
Second: ACCGGAUGUGCUUUCCGGUCUGAUGAGUCCGUAAGGACAAAACAG [G33A G39A]
The self-cleavage of the first is lower: 0.312 for the first, 0.429 for the second.

Compared with CCCGGAUGUGCUUUCCGGGCUGAUGAGUCCGUGAGGACGAAACAG [A1C U19G], ACCGGAUGUGCUUUCCGGUCUCAUGAGUCCGUGAGGACGACACAG [G22C A41C] is lower in self-cleavage: 1.12 for the first, 0.321 for the second.

First: ACCGGAUGUGCUUUCUGGUCAGAUGAGUCCGUGAGGACGAAACAG [C16U U21A]
Second: GCCGGAUGUGCUUUCCGGUCUGAUGAGUCCGUGAGUACGAAACAG [A1G G36U]
The self-cleavage of the first is lower: 0.698 for the first, 1.02 for the second.

First: ACCGGAGGUGCUUUCCGGUCCGAUGAGUCCGUGAGGACGAAACAG [U7G U21C]
Second: ACCGGAUGUGUUUUCCGGUCUGAUGAGUCCGUGAGGACGAAACUG [C11U A44U]
The self-cleavage of the first is higher: 0.641 for the first, 0.497 for the second.

Compared with ACCGGAUGUGCUUUCCAGUCUGAUGAGUCCGUGAGGACGAAACAU [G17A G45U], AUCGGAUGUGCUUUCCCGUCUGAUGAGUCCGUGAGGACGAAACAG [C2U G17C] is lower in self-cleavage: 0.411 for the first, 0.375 for the second.

Compared with ACUGGAUGUGCUUUCCGGCCUGAUGAGUCCGUGAGGACGAAACAG [C3U U19C], ACCGGAUGUGCUUUCCGGUCUGAUGCGUCCGUGAGUACGAAACAG [A26C G36U] is lower in self-cleavage: 0.539 for the first, 0.355 for the second.

Compared with ACCGGCUGUGCUUUACGGUCUGAUGAGUCCGUGAGGACGAAACAG [A6C C15A], ACCGGACGUGCUUUCCGGUCUCAUGAGUCCGUGAGGACGAAACAG [U7C G22C] is lower in self-cleavage: 0.761 for the first, 0.338 for the second.

First: ACCGGAUGUGCUUUCCGGUCUGAUGAGUCCGUGAGGGCAAAACAG [A37G G39A]
Second: ACCGGAUGUGCUUUCCGGUCUGACGAGUCCGUGGGGACGAAACAG [U24C A34G]
The self-cleavage of the first is lower: 0.362 for the first, 0.901 for the second.

Going from ACCGGAUGUGCUUUCCGGUCUGUAGAGUCCGUGAGGACGAAACAG [A23U U24A] to ACCGAAUGUGCUUUCCGGUCUGAUGAUUCCGUGAGGACGAAACAG [G5A G27U], the self-cleavage falls from 0.58 to 0.538.

Going from ACCGGAUGUGCUUUCCGGUCUGAUGAGUCCGUGAGGAUGACACAG [C38U A41C] to ACCGGAUGUGCUUUCCGGUCUGAUGAGUCUGUGAGGAAGAAACAG [C30U C38A], the self-cleavage rises from 0.32 to 0.695.

First: ACCGGACGUGCUUUCCGGUCUGAUUAGUCCGUGAGGACGAAACAG [U7C G25U]
Second: ACCGGAUGUACUUUCCGGUCUGAUGAGUCAGUGAGGACGAAACAG [G10A C30A]
The self-cleavage of the first is lower: 0.312 for the first, 1.01 for the second.

Compared with GCCGGAUGUGCUUUCCGGGCUGAUGAGUCCGUGAGGACGAAACAG [A1G U19G], AGCGGAUGUGCUUUCCGGUCUGAUGACUCCGUGAGGACGAAACAG [C2G G27C] is lower in self-cleavage: 0.61 for the first, 0.303 for the second.

First: AACGGAUGUGCUUUCCGGUCUGAUGAGUCCGGGAGGACGAAACAG [C2A U32G]
Second: ACCGGAUGUGCUUUCCGGUCUGAUGGGUGCGUGAGGACGAAACAG [A26G C29G]
The self-cleavage of the first is higher: 0.469 for the first, 0.283 for the second.

Going from ACCGGAUGUGCUUUCCGGUCUGAUGAGUGCGGGAGGACGAAACAG [C29G U32G] to ACCGGCUGUGCUUUCCGGUCUGAUGAGUCCGUAAGGACGAAACAG [A6C G33A], the self-cleavage rises from 0.553 to 0.689.

First: ACCGGAUGUGCUUUCCGAUCUGAUGAGUCCGUGAGGACUAAACAG [G18A G39U]
Second: ACCGGAUCUUCUUUCCGGUCUGAUGAGUCCGUGAGGACGAAACAG [G8C G10U]
The self-cleavage of the first is lower: 0.303 for the first, 1.25 for the second.

Going from AUCGGAUGUGCUUUCCGGUCUGAUGAGUCCGUGAGGACGAAACAU [C2U G45U] to ACCGGAUGUGCUUUCCGGUCUGAUGAGUCCGUGAGGACGAAAUGG [C43U A44G], the self-cleavage falls from 0.835 to 0.586.

First: AUCGGAGGUGCUUUCCGGUCUGAUGAGUCCGUGAGGACGAAACAG [C2U U7G]
Second: ACCGGAUGUGCUUUCCGGACGGAUGAGUCCGUGAGGACGAAACAG [U19A U21G]
The self-cleavage of the first is higher: 1.72 for the first, 0.314 for the second.

First: ACCGGAUGAGCUUUCCGGUCUGAUGAGUCGGUGAGGACGAAACAG [U9A C30G]
Second: GCCGGAUGUGCUUUCCGGUCCGAUGAGUCCGUGAGGACGAAACAG [A1G U21C]
The self-cleavage of the first is lower: 0.774 for the first, 0.949 for the second.

First: ACCGGAUGUGCUUUCCGGUCUGAUGAGUCCGUGAGGACGCAACCG [A40C A44C]
Second: ACCGGAUGUGCUGGCCGGUCUGAUGAGUCCGUGAGGACGAAACAG [U13G U14G]
The self-cleavage of the first is lower: 0.396 for the first, 0.796 for the second.

Going from ACCGGAUGUGCUGCCCGGUCUGAUGAGUCCGUGAGGACGAAACAG [U13G U14C] to ACCGGAUGUGCUUUCCGGUCUGAUGAGUCCGUGAGGAGGAAACAC [C38G G45C], the self-cleavage falls from 0.598 to 0.491.

Compared with ACCGGAUGUGCUUUCCGGUCUGAGGAGUCCUUGAGGACGAAACAG [U24G G31U], ACCGGAUGUGCUUUCCGGUCUGAGGAGUCCAUGAGGACGAAACAG [U24G G31A] is lower in self-cleavage: 1.13 for the first, 0.992 for the second.

Compared with ACCGGAUGUGCGUUCCGGUCUGAUGAGUCCGUGAGGACGAAUCAG [U12G A42U], GCCGGAUGUGCUUUCCGGUCUGAUGAGUCCGUGAGGACGAAUCAG [A1G A42U] is higher in self-cleavage: 0.321 for the first, 0.425 for the second.

First: ACCGGAUGUGCUUUCCGGUGAGAUGAGUCCGUGAGGACGAAACAG [C20G U21A]
Second: ACCGAAUGUGCUUUCCGGUCUGAUGAGUCAGUGAGGACGAAACAG [G5A C30A]
The self-cleavage of the first is lower: 0.286 for the first, 1.08 for the second.

Going from ACCGGAUGUGCUUUCCGGUCUGCUCAGUCCGUGAGGACGAAACAG [A23C G25C] to ACCGGAUGUGCUUUCCGGUCUGAUGAAUCCGUGAGGACGAAACGG [G27A A44G], the self-cleavage rises from 0.37 to 1.07.

Compared with ACCGGAUGUGCUUUCCGGUCUGCUGAGUCCGUGAGGAAGAAACAG [A23C C38A], ACCGGAUUUGCUUUCAGGUCUGAUGAGUCCGUGAGGACGAAACAG [G8U C16A] is higher in self-cleavage: 0.327 for the first, 0.908 for the second.

Going from ACCGGAUGAGCUUUCCGGUCUGAUGAGUCCGUCAGGACGAAACAG [U9A G33C] to ACCGGAUGUGCAUUCCGGUCUGAUGAGUCCGUGAGGACGACACAG [U12A A41C], the self-cleavage falls from 0.808 to 0.325.

Work on ACCGGAUGUGUUUUCCGGUCCGAUGAGUCCGUGAGGACGAAACAG [C11U U21C] yielded a self-cleavage of 0.561.
